Like-named read-outs stand apart in the source and are kept apart here.

Data set [1] addresses U1 snRNP ΔU1-C, biotinylated on SmF and Cy5-labelled on the U1 snRNA (CoSMoS form) (human) (UniProt P08621). As to the kind of experiment: colocalization single molecule spectroscopy.
For data set [2] the target is unchanged. Nature of the data set: colocalization single molecule spectroscopy. The source holds these as a separate data set.
The target in data set [3] is minimal U1 snRNP with U1-C (SPR) (human, UniProt P08621;P62316;P62318;P14678;P62306;P62304;P62308;P09234 …, internal_change). Nature of the data set: SPR.
Data set [4] has as its target T1, minimal U1 snRNP without U1-C (CoSMoS);U1-C zinc finger (U1-C_61) (human;human, UniProt P08621;P62316;P62318;P14678;P62306;P62304;P62308;P09234 …, internal_change|). Nature of the data set: single-molecule CoSMoS.
The target in data set [5] is T1, minimal U1 snRNP without U1-C …. As to the kind of experiment: single-molecule CoSMoS. This is another data set of the same source.

Chain of U1-C_61 (zinc finger region of U1-C) (P09234 1-61): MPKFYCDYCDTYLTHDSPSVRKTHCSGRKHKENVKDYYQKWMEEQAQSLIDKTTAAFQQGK

Regarding “U1-C_61 (zinc finger region of U1-C) (from UniProt P09234 1-61) (domain or fragment)”, the EC50 in data set [1] came to 1.3 nM; in data set [2] it was 1.8 nM.

Consider CAGAGUAAGUAU (ssRNA) [11bp-1A], for which the affinity in data set [3], expressed as Kd, was 2.7 nM.

In the case of ACACAGGUAAGUUAACA (ssRNA) [9bp], the Kd in data set [4] is roughly 0.12 nM.

CAGGUAAGUAU (ssRNA) [11bp] returned a Kd in data set [3] of 0.203 nM.

Regarding ACACAGAGUAAGUUAACA (ssRNA) [9bp-1A], binding in data set [5] was characterised by a dissociation constant (Kd) of 1.2 nM.

The EC50 is the concentration at which the effect is half-maximal. By Kd is commonly meant a measure of binding affinity in units of concentration. Read a high Kd as weaker binding.

These data come from article PMC11467380.
